In publication PMC3535332 (Nature Communications, 2012):

Experiments:
SEC = target: the molecule itself; experiment: SEC
purified protein [1] = substrate: Nc1ncnc2c1ncn2[C@@H]1O[C@H](COP(=O)(O)OP(=O)(O)OP(=O)(O)O)[C@@H](O)[C@H]1O; experiment: purified protein; details: 5 mM NAD+, 40 mM MgCl2, 100 mM Tris-HCl pH 8.0, 37 °C
purified protein [2] = substrate: NC(=O)c1ccc[n+]([C@@H]2O[C@H](COP(=O)(O)OP(=O)(O)OC[C@H]3O[C@@H](n4cnc5c(N)ncnc54)[C@H](O)[C@@H]3O)[C@@H](O)[C@H]2O)c1; experiment: purified protein; details: ATP as donor, 20 mM MgCl2, 100 mM Tris-HCl pH 8.0, 37 °C

B1: purified C5orf33 protein (His-tagged Δ62C5orf33 protein) (enzyme, human, UniProt Q4G0N4-1 63-442, looked up)
chain: DGGFRPSRVVVVAKTTRYEFEQQRYRYAELSEEDLKQLLALKGSSYSGLLERHHIHTKNVEHIIDSLRNEGIEVRLVKRREYDEETVRWADAVIAAGGDGTMLLAASKVLDRLKPVIGVNTDPERSEGHLCLPVRYTHSFPEALQKFYRGEFRWLWRQRIRLYLEGTGINPVPVDLHEQQLSLNQHNRALNIERAHDERSEASGPQLLPVRALNEVFIGESLSSRASYYEISVDDGPWEKQKSSGLNLCTGTGSKAWSFNINRVATQAVEDVLNIAKRQGNLSLPLNRELVEKVTNEYNESLLYSPEEPKILFSIREPIANRVFSSSRQRCFSSKVCVRSRCWDACMVVDGGTSFEFNDGAIASMMINKEDELRTVLLEQ
stoichiometry N (SEC): 2 | Km (purified protein [1]): 1700 ± 300 µM | Km (purified protein [2]): 22 ± 1 µM
